{"source": "patent US20150299265A1", "about": "(Molecular Partners, published 2015)", "binders": {"B1": {"name": "DARPin #32 (designed binder)", "chain": "MRGSHHHHHHGSDLGIKLLFAASRGQDDEVRILLAAGADVNAKDFEGITPLHAAARSGHLEIVEVLLKAGADVNAKDVEGWTPLHYAASYGHLEIVEVLLKAGADVNAQDNHGATPADLAAQWGHEDIAEVLQKLGGGGSGGGGSRSDLGIKLLQAANLGQDDEVRILLATGADVNAKDSIGQTPLHWAARRGHLEIVEVLLKAGADVNAKDEYGVTPLHLAASLGHLEIVEVLLKAGADVNAQDESGETPADLAALHGHEDIAEVLQKLN"}, "B2": {"name": "DARPin #38 (designed binder)", "chain": "MRGSHHHHHHGSDLGHKLLEAAVAGQDDEVRILLAAGADVNAKDWYGKTPLHFAAGLGHLEIVEVLLKAGADVNAKDEDGQTPLHLAAAYGHLEIVEVLLKAGADVNAQDNDGFTPADLAADSGHEDIAEVLQKLGGGGSGGGGSRSDLGIKLLQAANLGQDDEVRILLATGADVNAKDSIGQTPLHWAARRGHLEIVEVLLKAGADVNAKDEYGVTPLHLAASLGHLEIVEVLLKAGADVNAQDESGETPADLAALHGHEDIAEVLQKLN"}, "B3": {"name": "DARPin #33 (designed binder)", "chain": "MRGSHHHHHHGSDLGIKLLFAASRGQDDEVRILLAAGADVNAKDFEGITPLHAAARSGHLEIVEVLLKAGADVNAKDVEGWTPLHYAASYGHLEIVEVLLKAGADVNAQDNHGATPADLAAQWGHEDIAEVLQKLGGGGSGGGGSRSDLGAKLLVAATSGQDDEVRILLAAGADVNAKDRIGFTPLHRAAFVGHLEIVEVLLKAGADVNAQDDFGHTPADLAASLGHEDIAEVLQKLN"}, "B4": {"name": "DARPin #23 (designed binder)", "chain": "MRGSHHHHHHGSDLGDKLLQSDLGIKLLFAAAKSQDDEVRILLAAGADVNAKDFQSVTPLHIAAQSGHLEIVEVLLKAGADVNAKDVTGDTPLHLAAQHGHLEIVEVLLKAGADVNAQDERGWTPADLAADWGHEDIAEVLQKLGGGGSGGGGSRSDLGAKLLVAATSGQDDEVRILLAAGADVNAKDRIGFTPLHRAAFVGHLEIVEVLLKAGADVNAQDDFGHTPADLAASLGHEDIAEVLQKLN"}, "B5": {"name": "DARPin #28 (designed binder)", "chain": "MRGSHHHHHHGSDLGVKLLWAAARGQDDEVRILLAAGADVNAKDFQGITPLHIAATNGHLEIVEVLLKAGADVNAKDITGETPLHHAADSGHLEIVEVLLKAGADVNAQDKAGVTPADLAAAWGHEDIAEVLQKLGGGGSGGGGSRSDLGAKLLVAATSGQDDEVRILLAAGADVNAKDRIGFTPLHRAAFVGHLEIVEVLLKAGADVNAQDDFGHTPADLAASLGHEDIAEVLQKLN"}, "B6": {"name": "DARPin #36 (designed binder)", "chain": "MRGSHHHHHHGSDLGIKLLFAAAKGQDDEVRILLAAGADVNAKDFEGYTPLHVAAYDGHLEIVEVLLKAGADVNAKDSQGRTPLHEAAYSGHLEIVEVLLKAGADVNAQDDAGETPADLAAAWGHEDIAEVLQKLGGGGSGGGGSRSDLGAKLLVAATSGQDDEVRILLAAGADVNAKDRIGFTPLHRAAFVGHLEIVEVLLKAGADVNAQDDFGHTPADLAASLGHEDIAEVLQKLN"}, "B7": {"name": "DARPin #34 (designed binder)", "chain": "MRGSHHHHHHGSDLGIKLLFAASRGQDDEVRILLAAGADVNAKDFEGITPLHAAARSGHLEIVEVLLKAGADVNAKDVEGWTPLHYAASYGHLEIVEVLLKAGADVNAQDNHGATPADLAAQWGHEDIAEVLQKLGGGGSGGGGSRSDLGKKLLEAARAGQDDEVRILMANGADVNAKDEYGLTPLYLATAHGHLEIVEVLLKNGADVNAVDAIGFTPLHLAAFIGHLEIAEVLLKHGADVNAQDKFGKTAFDISIGNGNEDLAEILQKLN"}, "B8": {"name": "DARPin #24 (designed binder)", "chain": "MRGSHHHHHHGSDLGDKLLQSDLGIKLLFAAAKSQDDEVRILLAAGADVNAKDFQSVTPLHIAAQSGHLEIVEVLLKAGADVNAKDVTGDTPLHLAAQHGHLEIVEVLLKAGADVNAQDERGWTPADLAADWGHEDIAEVLQKLGGGGSGGGGSRSDLGKKLLEAARAGQDDEVRILMANGADVNAKDEYGLTPLYLATAHGHLEIVEVLLKNGADVNAVDAIGFTPLHLAAFIGHLEIAEVLLKHGADVNAQDKFGKTAFDISIGNGNEDLAEILQKLN"}, "B9": {"name": "DARPin #29 (designed binder)", "chain": "MRGSHHHHHHGSDLGVKLLWAAARGQDDEVRILLAAGADVNAKDFQGITPLHIAATNGHLEIVEVLLKAGADVNAKDITGETPLHHAADSGHLEIVEVLLKAGADVNAQDKAGVTPADLAAAWGHEDIAEVLQKLGGGGSGGGGSRSDLGKKLLEAARAGQDDEVRILMANGADVNAKDEYGLTPLYLATAHGHLEIVEVLLKNGADVNAVDAIGFTPLHLAAFIGHLEIAEVLLKHGADVNAQDKFGKTAFDISIGNGNEDLAEILQKLN"}, "B10": {"name": "DARPin #37 (designed binder)", "chain": "MRGSHHHHHHGSDLGIKLLFAAAKGQDDEVRILLAAGADVNAKDFEGYTPLHVAAYDGHLEIVEVLLKAGADVNAKDSQGRTPLHEAAYSGHLEIVEVLLKAGADVNAQDDAGETPADLAAAWGHEDIAEVLQKLGGGGSGGGGSRSDLGKKLLEAARAGQDDEVRILMANGADVNAKDEYGLTPLYLATAHGHLEIVEVLLKNGADVNAVDAIGFTPLHLAAFIGHLEIAEVLLKHGADVNAQDKFGKTAFDISIGNGNEDLAEILQKLN"}, "B11": {"name": "DARPin #40 (designed binder)", "chain": "MRGSHHHHHHGSDLGHKLLEAAVAGQDDEVRILLAAGADVNAKDWYGKTPLHFAAGLGHLEIVEVLLKAGADVNAKDEDGQTPLHLAAAYGHLEIVEVLLKAGADVNAQDNDGFTPADLAADSGHEDIAEVLQKLGGGGSGGGGSRSDLGKKLLEAARAGQDDEVRILMANGADVNAKDEYGLTPLYLATAHGHLEIVEVLLKNGADVNAVDAIGFTPLHLAAFIGHLEIAEVLLKHGADVNAQDKFGKTAFDISIGNGNEDLAEILQKLN"}, "B12": {"name": "DARPin #42 (designed binder)", "chain": "MRGSHHHHHHGSDLGAKLLSDLGVKLLWAAARGQDDEVRILLAAGADVNAKDFQGITPLHIAAQSGHLEIVEVLLKAGADVNAKDVTGDTPLHLAAQHGHLVIVEVLLKAGADVNAQDERGWTPADLAADWGHEDIAEVLQKLGGGGSGGGGSRSDLGKKLLEAARAGQDDEVRILMANGADVNATDIHGHTPLHLAAAMGHLEIVEVLLKNGADVNANDWRGFTPLHLAALNGHLEIVEVLLKNGADVNATDTAGNTPLHLAAWFGHLEIVEVLLKNGADVNAQDKFGKTAFDISIDNGNEDLAEILQKLN"}}, "data": [{"molecular_target": "Human HER2 expressed on tumour cells (human, UniProt P04626 23-1255)", "assay": "cell-based or functional assay", "units": {"% activity vs. DARPin # 41, BT474 cell proliferation": "%", "IC50 [nM], inhibition of BT474 cell proliferation (BrdU)": "nM"}, "values": [{"binder": "B1", "% activity vs. DARPin # 41, BT474 cell proliferation": 48, "IC50 [nM], inhibition of BT474 cell proliferation (BrdU)": 3.29}, {"binder": "B2", "% activity vs. DARPin # 41, BT474 cell proliferation": 99.3, "IC50 [nM], inhibition of BT474 cell proliferation (BrdU)": 3.3}, {"binder": "B3", "% activity vs. DARPin # 41, BT474 cell proliferation": 65.3, "IC50 [nM], inhibition of BT474 cell proliferation (BrdU)": 4.47}, {"binder": "B4", "% activity vs. DARPin # 41, BT474 cell proliferation": 97.3, "IC50 [nM], inhibition of BT474 cell proliferation (BrdU)": 2.99}, {"binder": "B5", "% activity vs. DARPin # 41, BT474 cell proliferation": 82.5, "IC50 [nM], inhibition of BT474 cell proliferation (BrdU)": 5.15}, {"binder": "B6", "% activity vs. DARPin # 41, BT474 cell proliferation": 68.8, "IC50 [nM], inhibition of BT474 cell proliferation (BrdU)": 2.56}, {"binder": "B7", "% activity vs. DARPin # 41, BT474 cell proliferation": 95.1, "IC50 [nM], inhibition of BT474 cell proliferation (BrdU)": 3.88}, {"binder": "B8", "% activity vs. DARPin # 41, BT474 cell proliferation": 99.9, "IC50 [nM], inhibition of BT474 cell proliferation (BrdU)": 1.97}, {"binder": "B9", "% activity vs. DARPin # 41, BT474 cell proliferation": 95, "IC50 [nM], inhibition of BT474 cell proliferation (BrdU)": 1.33}, {"binder": "B10", "% activity vs. DARPin # 41, BT474 cell proliferation": 94.8, "IC50 [nM], inhibition of BT474 cell proliferation (BrdU)": 2.19}, {"binder": "B11", "% activity vs. DARPin # 41, BT474 cell proliferation": 91.2, "IC50 [nM], inhibition of BT474 cell proliferation (BrdU)": 2.76}, {"binder": "B12", "% activity vs. DARPin # 41, BT474 cell proliferation": 100, "IC50 [nM], inhibition of BT474 cell proliferation (BrdU)": 3.77}]}]}
